Legend:
[1] = molecular target: Dengue NS1 protein (serotype not given) (Dengue virus)
[2] = molecular target: T1, Staphylococcal enterotoxin B (UniProt P01552 28-266); assay: MagPlex sandwich fluoroimmunoassay; capture sdAb attached directly by EDC/sNHS
T1 sequence: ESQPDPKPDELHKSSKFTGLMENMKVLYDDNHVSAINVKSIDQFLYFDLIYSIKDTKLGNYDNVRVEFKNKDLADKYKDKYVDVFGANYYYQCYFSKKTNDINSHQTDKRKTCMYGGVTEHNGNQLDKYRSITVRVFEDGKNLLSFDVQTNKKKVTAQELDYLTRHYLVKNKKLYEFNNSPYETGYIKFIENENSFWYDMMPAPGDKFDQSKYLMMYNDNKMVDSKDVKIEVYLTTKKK

B1: DD7-DD7-SpyTag (VHH)
chain: EVQLVQSGGGSVQAGGSLRLSCAHSSITVPDYTIGWFRRAPGKGGEEVSLISMHGGRSWYAGSVKGRFAISRDSVKNTVYLQMNNLKPEDTDIYYCGGTTFGLAAAPNEYDSWGQGSQVTVSSGGGGSGGGGSGSEVQLVQSGGGSVQAGGSLRLSCAHSSITVPDYTIGWFRRAPGKGGEEVSLISMHGGRSWYAGSVKGRFAISRDSVKNTVYLQMNNLKPEDTDIYYCGGTTFGLAAAPNEYDSWGQGSQVTVSSGGGGSGGGGSGSAHIVMVDAYKPTKAAALEHHHHHH
With B1 the “fold improvement in ability to detect NS1 (against DD7-gs3k)” value [1] was ~25 fold.

B2: AcVe anti-SEB sdAb monomer (VHH)
VHH: DVQLVESGGGLVQPGGSLRLTCAASGLIFGSYAMGWFRQAPGKAREFVAAISWSGGDTYADSVKGRFTISRDNAKNTVYLQMNSLEPEDTAVYSCAAVGSKYYISKDAKDYGYWGQGTQVTVSS
B2: binds [2].
